Source: paper PMC5551644
Where two headings read alike, the source gives them in different places. Values belong to the substance of their own block, whether it stands above or below them.

Experiments:
[1] = molecular target: TGF-β2TM/TβRII binary complex (UniProt P37173); experiment: ITC
[2] = molecular target: TGF-β2TM, variant of TGF-β2 bearing K25R, I92V, and K94R substitutions (human); experiment: SPR
[3] = molecular target: Transforming growth factor β2 (TGF-β2), recombinant human (human) (UniProt P61812); experiment: SPR
[4] = molecular target: TGF-β2TM, variant of TGF-β2 bearing K25R, I92V, and K94R substitutions (human); experiment: SPR; remark: listed apart in the source
[5] = molecular target: Transforming growth factor β2 (TGF-β2), recombinant human (human) (UniProt P61812); experiment: SPR; remark: listed apart in the source
[6] = molecular target: TGF-β2TM/TβRII binary complex (UniProt P37173); experiment: SEC-MALS
[7] = molecular target: TGF-β2TM/TβRII binary complex (UniProt P37173); experiment: SEC
[8] = molecular target: Transforming growth factor β2 (TGF-β2), recombinant human (human) (UniProt P61812); experiment: ITC

- Kd [2]: 0.287 µM
- apparent KD with 4 μM TβRII [3]: 0.6 µM
- Kd [4]: 0.29 µM
- Kd [5]: 0.45 µM
Substance: betaglycan zona pellucida domain (BGZP) (from UniProt P26342 450-761) (domain or fragment)

- Kd [2]: 0.325 µM
- apparent KD with 2 μM TβRII [3]: 0.6 µM
- Kd [5]: 0.45 µM
Substance: C-terminal portion of the betaglycan zona pellucida domain (BG_(ZP-C)) (from UniProt P26342 589-761) (domain or fragment)

The next lines start with the substance.

Substance: betaglycan orphan domain (BGO), produced in HEK-293 expi cells (from UniProt P26342 24-383) (domain or fragment)
- Kd [1]: 0.082 µM
- dH [1]: -38.8 kJ mol^–1
- stoichiometry N [1]: 1.07 sites

Substance: full-length betaglycan extracellular domain (BG_(O-ZP)) (from UniProt P26342 24-761) (domain or fragment)
- stoichiometry N (BG (O-ZP) per TGF-β2TM homodimer) [6]: 1
- Kd [2]: 0.0055 µM
- stoichiometry N (BG (O-ZP) per TGF-β2TM homodimer) [7]: 1
- Kd [8]: 0.109 µM
- dH [8]: -52.6 kJ mol^–1
- stoichiometry N [8]: 1.04 sites

Substance: betaglycan orphan domain (BGO), produced in E. coli (from UniProt P26342 24-384) (domain or fragment)
- stoichiometry N (BGO per TGF-β2TM homodimer) [6]: 1
- Kd [2]: 0.098 µM
- stoichiometry N (BGO per TGF-β2TM homodimer) [7]: 1
